Non-standard residues stand in square brackets, D forms with d. No end group written: not given here. Sta = CC(C)C[C@H](N)[C@@H](O)CC(=O)O
Columns and labels:
[1] = target: T1, Δ2,3-452H soluble BACE (S174I, N223A, histidine tag), baculovirus/Sf9 (human, UniProt P56817 22-452); test: affinity chromatography on the immobilised inhibitor peptide
T1 construct: not shown: histidine tag

[2] = target: T2, Δ2,3-452H,NINL soluble BACE (S174I, N223A, R42L43P44R45 changed to NINL, histidine tag), baculovirus/Sf9 (human, UniProt P56817 46-452); test: as above
T2 construct: not shown: histidine tag
T2 sequence (P56817 other isoform, or with tags, fused parts or gaps S174I N223A S174I N223A): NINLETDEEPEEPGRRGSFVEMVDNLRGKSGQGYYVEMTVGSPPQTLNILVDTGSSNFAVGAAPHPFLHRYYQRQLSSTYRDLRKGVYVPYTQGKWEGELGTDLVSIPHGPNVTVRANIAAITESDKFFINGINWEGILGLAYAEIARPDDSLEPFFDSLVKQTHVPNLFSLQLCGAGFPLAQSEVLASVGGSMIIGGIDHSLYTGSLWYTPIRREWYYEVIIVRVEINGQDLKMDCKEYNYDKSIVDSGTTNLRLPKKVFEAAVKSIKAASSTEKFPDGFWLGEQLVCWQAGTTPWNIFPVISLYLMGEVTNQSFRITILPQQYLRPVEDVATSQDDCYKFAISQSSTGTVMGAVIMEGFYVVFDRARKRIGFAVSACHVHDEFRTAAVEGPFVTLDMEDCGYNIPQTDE

T1 sequence (P56817 22-452 S174I/N223A): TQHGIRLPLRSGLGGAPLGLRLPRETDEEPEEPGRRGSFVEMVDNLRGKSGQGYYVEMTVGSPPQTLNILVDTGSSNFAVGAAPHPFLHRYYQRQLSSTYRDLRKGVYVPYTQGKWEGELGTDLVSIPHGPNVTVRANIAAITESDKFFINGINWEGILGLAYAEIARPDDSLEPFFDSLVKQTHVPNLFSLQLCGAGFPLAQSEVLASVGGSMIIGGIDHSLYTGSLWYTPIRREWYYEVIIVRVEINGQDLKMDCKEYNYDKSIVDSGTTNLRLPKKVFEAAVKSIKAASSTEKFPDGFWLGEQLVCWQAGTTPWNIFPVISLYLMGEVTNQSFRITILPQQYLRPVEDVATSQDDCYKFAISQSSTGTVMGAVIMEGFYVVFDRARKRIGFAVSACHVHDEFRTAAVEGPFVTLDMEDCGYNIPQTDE

B1: P10-P4′staD→V inhibitor peptide, KTEEISEVN[sta]VAEF (peptide)
peptide: KTEEISEVN[Sta]VAEF
notes: also called P10-P4′staV; P10-4′staD→V
binding result [1]: binds
binding result [2]: binds

Source: patent US20040265965A1 (ELAN PHARMACEUTICALS, published 2004)
